Consider 16 molecules from patent US20230020729A1 (Memorial Sloan Kettering, published 2023).

The target in the experiment is T1, human Fc Receptor-Like 5 (FcRL5), full length, expressed on cells (human, UniProt Q96RD9 16-977).
T1 construct: also called CD307e; IRTA2
T1 sequence: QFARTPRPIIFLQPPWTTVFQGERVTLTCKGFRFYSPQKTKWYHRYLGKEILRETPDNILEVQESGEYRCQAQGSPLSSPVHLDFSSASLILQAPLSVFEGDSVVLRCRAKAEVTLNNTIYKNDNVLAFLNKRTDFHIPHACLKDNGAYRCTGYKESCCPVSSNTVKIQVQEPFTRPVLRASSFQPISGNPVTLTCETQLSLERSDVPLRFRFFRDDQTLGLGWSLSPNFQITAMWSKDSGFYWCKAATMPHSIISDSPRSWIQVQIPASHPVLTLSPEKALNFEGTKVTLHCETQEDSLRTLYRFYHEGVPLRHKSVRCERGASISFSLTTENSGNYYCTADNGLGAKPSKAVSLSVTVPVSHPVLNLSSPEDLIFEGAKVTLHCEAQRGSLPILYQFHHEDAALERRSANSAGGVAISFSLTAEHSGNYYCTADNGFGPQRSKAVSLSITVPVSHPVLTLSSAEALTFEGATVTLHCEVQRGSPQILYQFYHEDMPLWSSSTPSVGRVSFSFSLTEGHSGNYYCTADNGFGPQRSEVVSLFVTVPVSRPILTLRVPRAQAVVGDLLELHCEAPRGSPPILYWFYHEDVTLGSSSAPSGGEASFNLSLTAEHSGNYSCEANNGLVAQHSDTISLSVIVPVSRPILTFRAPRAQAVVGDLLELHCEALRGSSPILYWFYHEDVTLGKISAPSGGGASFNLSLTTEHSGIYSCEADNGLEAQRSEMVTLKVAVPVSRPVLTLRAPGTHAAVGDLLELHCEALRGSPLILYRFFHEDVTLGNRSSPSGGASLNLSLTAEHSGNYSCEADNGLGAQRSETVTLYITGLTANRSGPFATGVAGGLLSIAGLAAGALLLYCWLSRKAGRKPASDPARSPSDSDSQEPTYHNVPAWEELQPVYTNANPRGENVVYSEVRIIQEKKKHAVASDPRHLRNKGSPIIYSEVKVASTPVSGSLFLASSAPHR
The experiment in a line: scFv phage: ELISA on His-tag FcRL5, flow cytometry on FcRL5-overexpressing 3T3 and Raji cells. (In general: An ELISA detects its analyte on a solid surface through an enzyme-linked reagent.)

B1: ET200-005 scFv (scFv)
scFv: QPVLTQPPSVSVVPGKTARITCGGKNIGSKSVHWYQQKPGQAPVVVIHYDSDRPSGIPERFSGSNSGNTATLTISRVEAGDEADYYCQVWDSSSDHPYVFGTGTKVTVLGSRGGGGSGGGGSGGGGSLEMAQVQLVQSGAEVKKPGASVKVSCKASGYTFTNYGISWVRQAPGQGLEWMGWISAYNGNTNYAHKLQGRVTMTTDTSTSTANMELRSLRPDDTAVYYCARSYFGSHDYWGQGTLVTVSS
notes: VL-linker-VH; screened as scFv phage clone
Regarding B1, the binding result is “binds”.

B2: ET200-113 scFv (scFv)
scFv: QSVVTQPPSVSAAPGQKVTISCSGSSSNIGNNYVSWYQQLPGTAPKLLIYDNNKRPSGIPDRFSGSKSGTSATLGITGLQTGDEADYYCGTWDSSLSAAYVFGTGTKVTVLGSRGGGGSGGGGSGGGGSLEMAQVQLVQSGAEVKKPGASVKVSCKASGYSFTSYTISWVRQAPGQGLEWMGWVSTYNGLRNYAQNLQGRVTMTTDTLTTTAYMELRSLRSDDTAVYYCVREGSPDYGDFAAFDYWGQGTLVTVSS
notes: as for B1
Regarding B2, the binding result is given as “binds”.

B3: ET200-123 scFv (scFv)
scFv: QAVLTQPPSASGTPGQRVTISCSGSSSNIGSNTVNWYQQLPGTAPKLLMYNNDQRPSGVPDRFSGSKSGTSASLAISGLQSEDEADYYCAAWDDSLNGYVFGPGTKVTVLGSRGGGGSGGGGSGGGGSLEMAQVQLVESGAEVKKPGASVKVSCKASGYTFTSYGISWVRQAPGQGLEWMGWISAYNGNTNYAQKLQGRVTMTTDTSTSTAYMELRSLRSDDTAVYYCARDLSRGANPHYYYYYGMDVWGQGTTVTVSS
notes: as for B1
For the molecule B3, the binding result was “binds”.

B4: ET200-009 scFv (scFv)
scFv: QSVLTQPPSASGTPGQTVTISCSGSNSNIGSNYVYWYQQLPGTAPKLLIYRNNQRPSGVPDRFSGSKSGTSASLAISGLRSEDEADYYCAAWDDSLSAYVFGTGTKVTVLGSRGGGGSGGGGSGGGGSLEMAQVQLVQSGAEVKKPGASVKVSCKASGYTFTSYGISWVRQAPGQGLEWMGWISAYNGNTNYAQKLQGRVTMTTDTSTSTAYMELRSLRSDDTAVYYCARSSGNMVSWKDMWGQGTLVTVSS
notes: as for B1
Turning to B4, the binding result is listed as “binds”.

B5: ET200-110 scFv (scFv)
scFv: QSVLTQPPSASGTPGQRVTISCSGSSSNIGTNGVNWFQQFPGTAPKLLIYTNDQRPSGVPDRFSGSKSGTSASLAISGLQSADEADYYCAVWDHSLNGPVFGGGTKLTVLGSRGGGGSGGGGSGGGGSLEMAQVQLVQSGAEVKKPGSSVKVSCKASGGTFSSYAISWVRQAPGQGLEWMGGIIPIFGTANYAQKFQGRVTITADESTSTAYMELSSLRSEDTAVYYCARGAGFDAFDIWGQGTMVTVSS
notes: as for B1
As for B5, the binding result is recorded as “binds”.

B6: ET200-118 scFv (scFv)
scFv: QAVLTQPASVSGSPGQSITISCTGTSSDVGGYNYVSWYQQHPGKAPKLMIYEVSNRPSGVSNRFSGSKSGNTASLTISGLQAEDEADYYCSSYTSSSTPYVFGAGTKVTVLGSRGGGGSGGGGSGGGGSLEMAEVQLVESGGGLVQPGRSLRLSCAASGFTFDDYAMHWVRQAPGKGLEWVSGISWNSGSIGYADSVKGRFTISRDNAKNSLYLQMNSLRAEDTALYYCAKARWTAVASDHHFDYWGQGTLVTVSS
notes: as for B1
As to B6, the binding result was “binds”.

B7: ET200-112 scFv (scFv)
scFv: QAVLTQPPSASGTPGQRVTISCSGSSSNIGSNTVNWYQQLPGTAPKLLMYSNDQRPSGVPDRFSGSKSGTSASLAISGLQSEDEADYYCAAWDDSLNGYVFAAGTQLTVLSSRGGGGSGGGGSGGGGSLEMAQVQLQQWGAGLLKPSETLSLTCAVYGGSFSGYYWSWIRQPPGKGLEWIGEINHSGSTNYNPSLKSRVTISVDTSKNQFSLKLSSVTAADTAVYYCAREGLDAFDIWGQGTMVTVSS
notes: as for B1
As to B7, the binding result is “binds”.

B8: ET200-108 scFv (scFv)
scFv: QSVLTQPPSVSAPPGQKVTISCSGSSSNIGNNYVSWYQQFPGTAPKLLIYDNNKRPSGISDRFSGSKSGTSATLGIAGLQTGDEADYYCGTWDTSLSGFYVFGSGTKVTVLGSRGGGGSGGGGSGGGGSLEMAEVQLVQSGAEVKKPGASVKVSCKASGYTFTSYTISWVRQAPGQGLEWMGWISTYNGLTNYAQNLQGRVTMTTDTFTTTAYMELRSLRSDDTAVYYCVREGSPDYGDFASFDYWGQGTLVTVSS
notes: as for B1
For the molecule B8, the binding result is “binds”.

B9: ET200-121 scFv (scFv)
scFv: QSVLTQPPSVSGAPGQRVTVSCTGSRSNIGAGYDVHWYQQLPGTAPKLLIYGNSNRPPGVPDRFSGSKSGTSASLVITGLQAEDAADYYCQSYDNTVRESPYVFGTGTKVTVLGSRGGGGSGGGGSGGGGSLEMAEVQLVQSGAEVKKPGASVKVSCKVSGYTLTELSMHWVRQAPGKGLEWMGGFDPEDGETIYAQKFQGRVTMTEDTSTDTAYMELSSLRSEDTAVYYCATESNLVSRHYYYYGMDVWGQGTTVTVSS
notes: as for B1
As for B9, the binding result was “binds”.

B10: ET200-115 scFv (scFv)
scFv: QSVLTQPPSVSGAPGQRVTISCTGSSSNIGARYDVHWYQQLPGTAPRLLISANYDRPSGVPDRFSGSKSGTSASLAITGLQAEDEADYYCQSYDSSVSAWVFGGGTKVTVLGSRGGGGSGGGGSGGGGSLEMAEVQLVQSGAEVKEPGASVRISCQASGYNFISYYMHWVRQAPGQGLEWMGTINPGSGETDYSQKLQGRVTMTRDPSTGTFDMGLSSLTSGDTAVYYCATGLIRGASDAFNIWGRGTMVTVSS
notes: as for B1
Turning to B10, the binding result is “binds”.

B11: ET200-008 scFv (scFv)
scFv: QSALTQPASVSGSPGQSITISCTGTSSDVGGYNYVSWYQQHPGKAPKLMIYDVSNRPSGVSNRFSGSKSGNTASLTISGLQAEDEADYYCSSYTSSSTSKVFGGGTKLTVLGSRGGGGSGGGGSGGGGSLEMAEVQLVESGGGVVRPGGSLRLSCAASGFTFGDYGMSWVRQAPGKGLEWVSGINWNGGSTGYADSVKGRFTISRDNAKNSLYLQMNSLRAEDTAVYYCARSKYNFHVYYDYWGQGTLVTVSS
notes: as for B1
On to B11, for which the binding result is recorded as “binds”.

B12: ET200-125 scFv (scFv)
scFv: NFMLTQPHAVSESPGKTVTISCTRSSGSIASNYVQWYQQRPGSSPRTVIYEDNQRPSGVPGRFSGSIDSSSNSASLTISGLKTEDEADYYCQSYDSTSVLFGGGTKLTVLGSRGGGGSGGGGSGGGGSLEMAEVQLVQSGAEVKKPGSSVKVSCKASGGTFSSNSLSWVRQAPGQGLEWMGRIFPILGITNYAQKFQGRVTITADKSTSTAYMELSSLRSEDTAVYYCARGNYQWYDAFDIWGQGTMVTVSS
notes: as for B1
For B12, the binding result was “binds”.

B13: ET200-109 scFv (scFv)
scFv: LPVLTQPPSASATPGQRVTISCSGTTSNIGSNTVHWYQQLPGTAPKLLIYNNNQRPSGVPDRFSGSKSGTSASLAISGLRSEDEATYSCATWDDSLSGVVFGGGTKLTVLGSRGGGGSGGGGSGGGGSLEMAEVQLVQSGAEVKKPGSSVKVSCKASGGTFSSYAISWVRQAPGQGLEWMGGIIPIFGTANYAQKFQGRVTITADESTSTAYMELSSLRSEDTAVYYCARDPAYGDYEYDAFDIWGQGTMVTVSS
notes: as for B1
As to B13, the binding result is on record as “binds”.

B14: ET200-124 scFv (scFv)
scFv: SYVLTQPPSVSVAPGKTARISCGGNDIGSKSVFWYQQRPGQAPVLVVYDDSDRPSGLPERFSGFNSGNTATLTISRVEAGDEADYYCQVWDSSSDHYVFGTGTKVTVLGSRGGGGSGGGGSGGGGSLEMAQVQLVESGGGLVQPGRSLRLSCAASGFTFDDYAMHWVRQAPGKGLEWVSGISWNSGSIGYADSVKGRFTISRDNAKNSLYLQMNSLRAEDTALYYCAKDITYGSGSYGAFDIWGQGTMVTVSS
notes: as for B1
Regarding B14, the binding result is “binds”.

B15: ET200-116 scFv (scFv)
scFv: QPVLTQPPSVSVSPGQTAAIPCSGDKLGDKFASWYQQKPGQSPVLVIYQDTKRPSGIPERFSGSNSGNTATLTISGTQAMDEADYYCQTWASGIVVFGGGTKLTVLGSRGGGGSGGGGSGGGGSLEMAQVQLQQSGPGLVKPSQTLSLTCAISGDSVSSNSAAWNWIRQSPSRGLEWLGRTYYRSKWYNDYAVSVKSRITINPDTSKNQFSLQLNSVTPEDTAVYYCARERSGWKGFDYWGQGTLVTVSS
notes: as for B1
Regarding B15, the binding result is “binds”.

B16: ET200-010 scFv (scFv)
scFv: QSALTQPASVSGSPGQSITISCTGTSSDVGGYNSVSWYQQHPGKAPRLMIYDVSNRPSGVSNRFSGSKSGNTASLTISGLQAEDEADYYCSSYTSSSTPLVFGTGTKVTVLGSRGGGGSGGGGSGGGGSLEMAQVQLVQSGAEVKKPGASVKVSCKASGYTFTSYGISWVRQAPGQGLEWMGWISAYNGNTNYAQKLQGRVTMTTDTSTSTAYMELRSLRSDDTAVYYCARGAVAYHDWGQGTLVTVSS
notes: as for B1
On to B16, for which the binding result is listed as “binds”.
